# In patent publication US20230099801A1, “RESTORATION OF T CELL ACTIVITY VIA THE CD39/CD73 AXIS” (INNATE PHARMA, priority 2017, published 2023):
# Entries after “also recorded” stand apart in the source; their conditions may differ.
# T1: cell-membrane bound CD39 (CD39-expressing cells) (Homo sapiens, UniProt P49961)
# T1 construct: host or cells: CD39-expressing cells
# T1 sequence (P49961 1-510): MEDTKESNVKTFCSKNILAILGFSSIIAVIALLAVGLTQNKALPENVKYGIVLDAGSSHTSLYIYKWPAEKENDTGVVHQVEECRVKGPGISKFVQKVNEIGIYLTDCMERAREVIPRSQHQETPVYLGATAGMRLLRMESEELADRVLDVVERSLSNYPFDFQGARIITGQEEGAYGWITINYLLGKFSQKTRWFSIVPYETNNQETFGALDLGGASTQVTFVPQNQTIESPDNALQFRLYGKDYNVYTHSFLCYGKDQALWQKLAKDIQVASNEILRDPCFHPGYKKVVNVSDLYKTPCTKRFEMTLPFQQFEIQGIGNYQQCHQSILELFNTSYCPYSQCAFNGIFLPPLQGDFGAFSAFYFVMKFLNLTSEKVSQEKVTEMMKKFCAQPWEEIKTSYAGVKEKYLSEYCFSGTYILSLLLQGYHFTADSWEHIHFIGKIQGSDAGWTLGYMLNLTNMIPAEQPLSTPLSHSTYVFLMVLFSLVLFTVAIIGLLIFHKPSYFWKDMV
# T2: CHO cells expressing murine CD39 (CHO-moCD39) (Mus musculus, UniProt P55772)
# T2 construct: expressed in transfected cells; host or cells: CHO cells
# T2 sequence (P55772 1-510): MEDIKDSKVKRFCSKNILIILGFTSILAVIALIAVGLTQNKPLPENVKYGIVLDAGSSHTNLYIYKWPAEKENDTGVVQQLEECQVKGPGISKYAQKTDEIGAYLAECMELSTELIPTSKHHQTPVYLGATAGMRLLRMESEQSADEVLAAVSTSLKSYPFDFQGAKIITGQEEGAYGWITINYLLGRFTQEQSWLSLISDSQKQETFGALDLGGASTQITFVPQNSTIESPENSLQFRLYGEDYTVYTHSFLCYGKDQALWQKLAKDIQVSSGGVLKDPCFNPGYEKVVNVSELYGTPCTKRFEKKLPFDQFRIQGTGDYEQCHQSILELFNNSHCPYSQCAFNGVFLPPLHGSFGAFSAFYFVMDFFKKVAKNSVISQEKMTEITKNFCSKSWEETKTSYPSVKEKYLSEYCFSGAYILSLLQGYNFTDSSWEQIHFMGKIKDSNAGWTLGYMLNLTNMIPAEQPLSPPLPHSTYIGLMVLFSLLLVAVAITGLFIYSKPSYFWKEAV
# T3: Human CD39-L4 (NTPDase5, ENTPD5) (Homo sapiens, UniProt O75356)
# T3 sequence (O75356 25-428): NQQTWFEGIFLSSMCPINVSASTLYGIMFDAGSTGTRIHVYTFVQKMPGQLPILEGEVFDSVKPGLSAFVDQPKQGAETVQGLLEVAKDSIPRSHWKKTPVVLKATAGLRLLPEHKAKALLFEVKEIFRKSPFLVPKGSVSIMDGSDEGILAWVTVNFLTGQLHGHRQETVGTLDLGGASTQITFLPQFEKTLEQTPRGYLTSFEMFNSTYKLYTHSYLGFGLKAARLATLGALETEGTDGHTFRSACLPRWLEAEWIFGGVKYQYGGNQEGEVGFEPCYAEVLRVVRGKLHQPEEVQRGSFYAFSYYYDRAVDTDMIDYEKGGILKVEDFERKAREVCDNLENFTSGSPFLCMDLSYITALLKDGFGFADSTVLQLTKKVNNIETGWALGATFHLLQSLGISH
# B1: I-394: anti-CD39 antibody, VH SEQ ID NO: 6, VL SEQ ID NO: 7; heavy/light chains SEQ ID NOS: 52 and 53 (antibody)
# heavy: EVQLQQSGPELVKPGASVKMSCKASGYTFTDYNMHWVKQSHGRTLEWIGYIVPLNGGSTFNQKFKGRATLTVNTSSRTAYMELRSLTSEDSAAYYCARGGTRFAYWGQGTLVTVSAASTKGPSVFPLAPSSKSTSGGTAALGCLVKDYFPEPVTVSWNSGALTSGVHTFPAVLQSSGLYSLSSVVTVPSSSLGTQTYICNVNHKPSNTKVDKRVEPKSCDKTHTCPPCPAPEAEGAPSVFLFPPKPKDTLMISRTPEVTCVVVDVSHEDPEVKFNWYVDGVEVHNAKTKPREEQYNSTYRVVSVLTVLHQDWLNGKEYKCKVSNKALPSSIEKTISKAKGQPREPQVYTLPPSREEMTKNQVSLTCLVKGFYPSDIAVEWESNGQPENNYKTTPPVLDSDGSFFLYSKLTVDKSRWQQGNVFSCSVMHEALHNHYTQKSLSLSPGK
# light: DIVLTQSPASLAVSLGQRATISCRASESVDNFGVSFMYWFQQKPGQPPNLLIYGASNQGSGVPARFRGSGSGTDFSLNIHPMEADDTAMYFCQQTKEVPYTFGGGTKLEIKRTVAAPSVFIFPPSDEQLKSGTASVVCLLNNFYPREAKVQWKVDNALQSGNSQESVTEQDSKDSTYSLSSTLTLSKADYEKHKVYACEVTHQGLSSPVTKSFNRGEC
# modifications: Chimeric homo sapiens mus musculus
# Legend:
# [1] = biological target: T1, cell-membrane bound CD39 (CD39-expressing cells); experiment: Inhibition of the enzymatic activity of cellular CD39, Cell Titer Glo; type: cell-based
# Experimental: The ability of an antibody to inhibit cells expressing CD39 protein can be tested by detecting ATP after incubating test antibody with cells (e.g., Ramos cells, cells transfected with CD39, etc.). See, e.g., Example 1. Cells can be incubated for 1 hour at 37° C. with test antibody. Cells are then incubated with 20 μM ATP for 1 additional hour at 37° C. Plates are centrifuged for 2 min at 400 g and cell supernatant are transferred in a luminescence microplate (white wells). CTG is added to the supernatant and emitted light is quantified after a 5 min incubation in the dark using an Enspire™ luminometer. Anti-CD39 antibody efficacy is determined by comparing emitted light in presence of antibody with ATP alone (maximal light emission) and ATP together with cells (minimal light emission).
# The inhibition of the CD39 enzymatic activity in CD39-expressing cells by antibodies was evaluated using Cell Titer Glo™ (Promega, reference G7571) that allows assessment of ATP hydrolysis through use of a reagent that generates a luminescent signal proportional to the amount of ATP present. […] Plates were centrifuged for 2 min at 400 g and 50 μl cell supernatant are transferred in a luminescence microplate (white wells). 50 μl CellTiter-Glo® Reagent (CTG) was added to the supernatant and emitted light was quantified after a 5 min incubation in the dark using a Enspire™ luminometer. […]
# [2] = biological target: T2, CHO cells expressing murine CD39 (CHO-moCD39); experiment: Antibody titration on CHO-moCD39 cells by flow cytometry; type: binding
# Experimental: Cells were incubated with various concentration of unlabeled anti-CD39 antibody from 30 μg/ml to 5×10^−4 μg/ml, for 30 minutes at 4° C. After washes, cells were incubated with Goat anti-mouse H+L labeled secondary antibody for 30 min at 4° C.
# [3] = biological target: T3, Human CD39-L4 (NTPDase5, ENTPD5); experiment: ELISA titration on CD39-L4; type: binding
# Experimental: Wells were washed in TBS Tween 20, and further saturated 2H at RT in TBS Blocking buffer. Dose range concentration of primary antibody was incubated in TBS blocking buffer for 2h at RT. Wells were washed in TBS Tween 20. […] Optical density was measured on Enspire™ at OD=450.
# CD8 T cells = experiment: T cell proliferation assay in presence of added ATP, CD8 T cells; type: cell-based, human
# Experimental: Peripheral blood from healthy donors was obtained from EFS, and mononuclear cells were isolated on a Ficoll gradient. Lymphocytes were further enriched on a 52% Percoll gradient by collection of the cell pellets and stained with a Cell Trace dye (Thermofisher) following the TDS provided by the manufacturer. […] Inhibition of T cell proliferation was achieved by addition of ATP (200 μM). T cell proliferation and ability of Abs to block immune suppressive effect of AMP were assessed by flow cytometry by quantifying the dye dilution in the proliferating T cell subset.
# Percentage of proliferating T cells vs. anti-CD73 Ab concentration is plotted in graphs using GraphPad Prism software.
molecule,measurement,setting,value
B1,inhibition of the enzymatic activity of cellular (cell-membrane bound) CD39,[1],substantially fully blocks; also recorded: inhibit
same,potency and maximal inhibition of cellular CD39 compared to BY40,[1]; FIG. 2A,greater potency and maximal inhibition; also recorded: greater potency at all concentrations as well as greater maximal inhibition
same,binding to cells expressing murine CD39,[2],not to cells expressing murine CD39
same,binding to CD39-L4 in ELISA,[3],not to any of the human isoforms
same,potentiation of anti-CD73 antibodies in restoring CD8 T cell proliferation,CD8 T cells; added ATP 200 μM,strongly potentiation
same,"enhancement of CD8 T cell proliferation, alone without anti-CD73","CD8 T cells; concentrations of 0.1 μg/ml and 1 μg/ml, added ATP",remarkable enhancement
